According to a protein production outcome set (Wang et al. 2014):

Assay: label from the status in PepcDB records

With “MSLDNLDVICIGAAIVDIPLQPVSKNIFDVDSYPLERIAMTTGGDAINEATIISRLGHRTALMSRIGKDAAGQFILDHCRKENIDIQSLKQDVSIDTSINVGLVTEDGERTFVTNRNGSLWKLNIDDVDFARFSQAKLLSLASIFNSPLLDGKALTEIFTQAKARQMIICADMIKPRLNETLDDICEALSYVDYLFPNFAEAKLLTGKETLDEIADCFLACGVKTVVIKTGKDGCFIKRGDMTMKVPAVAGITAIDTIGAGDNFASGFIAALLEGKNLRECARFANATAAISVLSVGATTGVKNRKLVEQLLEEYEGEGHHHHHH” the protein production was “not failed”.

For “MADNKVNLSINGQSKVPPGFRFHPTEEELLHYYLRKKVNSQKIDLDVIREVDLNKLEPWDIQEECRIGSTPQNDWYFFSHKDKKYPTGTRTNRATVAGFWKATGRDKIICSCVRRIGLRKTLVFYKGRAPHGQKSDWIMHEYRLDDTPMSNGYADVVTEDPMSYNEEGWVVCRVFRKKNYQKIDDCPKITLSSLPDDTEEEKGPTFHNTQNVTGLDHVLLYMDRTGSNICMPESQTTTQHQDDVLFMQLPSLETPKSESPVDQSFLTPSKLDFSPVQEKITERPVCSNWASLDRLVAWQLNNGHHNPCHRKSFDEEEENGDTMMQRWDLHWNNDDNVDLWSSFTESSSSLDPLLHLSV”, the protein production was “failed”.

With “MTAALSSNFLLVAFFLYLAATIFYAVSIMGKKWRNKEGEMKGNRWGTFGYYSAIIALLFALGYFITRWMVAGFAPVSNMFEYVTFFGICIGLAFVIINAIYRSNILGLFTMPTVMLMIAYASVFPSEVAPLIPALQSNWLALHVTTVALGQGILAVSFASGLVYLIRTIDYSIQSWKTFWLEFILYSVITVVGFILITYTFQAMNYEAKFNYVNENDVEATMEYHLPPIVGPHEGQLISETGNQPLVNMPAWIKSDQLNTVIWSFLVGLVLYLLLYLVFRKPVGAILQPIVKRVSPQLVDEISYRAIAIGFPVFTLGGLIFAMIWAQIAWTRFWGWDPKEVWALITFLFYAAYLHLRLSKGWHGERSAWLCVIGFAIIMFNLVFVNLVIAGLHSYAGGM” the protein production was “failed”.

For “MSLCRLARKNIRTFATKRMKQFMWIAMSIMILFFMISLQFNEGAILKVGDAFVFQMYFYTLFIVLIFICIFTTYKMMYSLLLVRREEFTSYVAENIKRKEVLCLLCQEQLFIYGAAFVFGLVNGMLFLKLFTIIFIRIAGIQGINSAPITIYAIVVVSIIMIVILLLSMVQCFRFVQSLQDKNSLHFKKKA”, the protein production was “failed”.

In the case of “EKQSIHRTQLEALDSVITDLETSAQKGISLTEPEIFASLLETCYSLRAIDHGVRVHHLIPPYLLRNNLGISSKLVRLYASCGYAEVAHEVFDRMSKRDSSPFAWNSLISGYAELGQYEDAMALYFQMAEDGVKPDRFTFPRVLKACGGIGSVQIGEAIHRDLVKEGFGYDVYVLNALVVMYAKCGDIVKARNVFDMIPHKDYVSWNSMLTGYLHHGLLHEALDIFRLMVQNGIEPDKVAISSVLARVLSFKHGRQLHGWVIRRGMEWELSVANALIVLYSKRGQLGQACFIFDQMLERDTVSWNAIISAHSKNSNGLKYFEQMHRANAKPDGITFVSVLSLCANTGMVEDGERLFSLMSKEYGIDPKMEHYACMVNLYGRAGMMEEAYSMIVQEMGLEAGPTVWGALLYACYLHGNTDIGEVAAQRLFELEPDNEHNFELLIRIYSKAKRAEDVERVRQMMVDRGLET”, the protein production is reported as “not failed”.

In the case of “MALTTISPHDAQELIARGAKLIDIRDADEYLREHIPEADLAPLSVLEQSGLPAKLRHEQIIFHCQAGKRTSNNADKLAAIAAPAEIFLLEDGIDGWKKAGLPVAVNKSQPLPLMRQVQIAAGGLILIGVVLGYTVNSGFFLLSGFVGAGLLFAGISGFCGMARLLDKMPWNQRA”, the protein production is reported as “failed”.

In the case of “MATFFSLALYAGSFTFILREGGIPFYYLGVFFAIAVILYLIFNSLSREYVGRAGDAIIVPVSILMVAVAFVLVYISQSIPIISVSVALFTVSLIMFYNSTVRNEVSISTNERIFMGGAGLGGFIGLIVAGVFPGKMSVLDSYMAIIMLAVGLAAVFVFFRRPTGRFSIADAFHVFVRPFNSMEKIRTIEKKLLLLAVSLDEIFVWIAIGASFPFVISAGLGSGMSRPAVMFSVAAAIIIGAALVYVFESSNIPATPFFYPVKDLILVAGLLLLSFMYPASYVAGMIFLALLPVAFIGSVRFLKSQFPSSFDFRQITSFFRNPIMVIAPLMGSILWAVSGAMLFLTAMAFAIFALVIGIIVITNPKIFKVSDPYETANN”, the protein production is reported as “failed”.
